According to patent US20150284813A1:

Molecular target: bioluminescent capsule containing ALuc16 in its frame structure (DEVD sequence as cargo)
Assay: cell-based or functional assay

Chain of bioluminescent capsule containing ALuc16 in its frame structure (DEVD sequence as cargo) (chain, as listed by the source, form in doubt): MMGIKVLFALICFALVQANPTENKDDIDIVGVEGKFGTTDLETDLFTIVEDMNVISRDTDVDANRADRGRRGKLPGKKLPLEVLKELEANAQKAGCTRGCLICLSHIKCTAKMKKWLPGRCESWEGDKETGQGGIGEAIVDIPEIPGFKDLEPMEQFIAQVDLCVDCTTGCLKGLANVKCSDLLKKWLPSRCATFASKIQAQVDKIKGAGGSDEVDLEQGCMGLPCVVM

- luminescence intensity of COS-7 cells with versus without STS (two minutes), LAS-4000 image: 2 folds
Substance: Caspase-3 (enzyme)
